For five substances, Kd results are on record in PMC11210196.

For the series, the system named is CsrA-H6 (Escherichia coli (K-12 MG1655?)). Briefly: EMSA. The following applies: apparent Kd, EMSA: 0.08-0.2 nM RNA, 10 mM MgCl2, 100 mM KCl, 32.5 ng SUPERase In, 37 C 30 min, footprint: 2 nM RNA, 10 mM Tris-HCl pH 7.5, 10 mM MgCl2, 100 mM KCl, 40 ng ….

In the case of evgA 5' leader (EMSA), the Kd (two shifted species) turned out to be 7 nM.

Consider ydeO 5' leader (EMSA), for which the Kd (binds both conformers) came out at 84 nM.

Turning to gadE 5' leader (EMSA), the Kd was 138 nM.

As for gadB 5' leader (EMSA), for the setting “two shifts”, the Kd is 49 nM.

Take gadA 5' leader (EMSA): the Kd (two shifts) turned out to be 73 nM.
